Target: T1, CD142 (Tissue Factor) on BxPC3 human pancreatic cancer cells (human, UniProt P13726 33-295)
T1 construct: whole, on cells; also called TF
Test: flow cytometry on BxPC3 cells
Experimental: Digested cells were centrifuged at 1000 rpm for 5 min and blocked with 10% goat serum (purchased from SenBeiJia Biological Technology Co., Ltd., Product No. SRJ-SE-GO012) for 30 min. Then Hu02 antibodies L1H1, L1H2, L1H3, L1H4, L1H5, L1H6, L2H1, L2H2, L2H3, L2H5, and L2H6 prepared in Example 5 were serially diluted 3 times with an initial concentration of 500 nM. After that, the Hu02 antibody was added to the cells and incubated for 1 h. After washing twice with PBS, FITC-labeled goat anti-human antibody (purchased from Sigma, product No. FS9512-2ML) was added at 1:500 and incubated for 1 h. The results were analyzed by flow cytometry (BD biosciences, product No. BD Accuri C6 Plus) after washing twice with PBS.

Binder | EC50 [nM]
Hu02 L1H1 (antibody, human IgG1, kappa, V domains shown) VH: EVQLVESGGGLVQPGGSLRLSCAASGFTFTEYHMSWVRQAPGKGLEWVGFIRNRANGYTTEYAASVKGRFTISRDDSKNSLYLQMNSLKTEDTAVYYCARLTMVVAEFDYWGQGTLVTVSS VL: DIQMTQSPSSLSASVGDRVTITCQASQDINKYLNWYQHKPGKGPKLLIYYTSTLQTGVPSRFSGSGSGTDFTFTVSNLQPEDIATYYCLQYDNLLTFGQGTKLEIKR | 11.6
Hu02 L2H1 (antibody, human IgG1, kappa, V domains shown) VH: EVQLVESGGGLVQPGGSLRLSCAASGFTFTEYHMSWVRQAPGKGLEWVGFIRNRANGYTTEYAASVKGRFTISRDDSKNSLYLQMNSLKTEDTAVYYCARLTMVVAEFDYWGQGTLVTVSS VL: AIQMTQSPSSLSASVGERVTITCRASQDINKYLNWYQHKPGKGPKLLIYYTSTLQTGVPSRFSGSGSGTDFTFTVSNLQPEDIATYYCLQYDNLLTFGQGTKLEIKR | 18.1
Hu02 L1H3 (antibody, human IgG1, kappa, V domains shown) VH: EVQLVESGGGLVQPGGSLRLSCAASGFTFTEYHMSWVRQAPGKGLEWVGFIRNRAQGYTTEYAASVKGRFTISRDDSKNSLYLQMNSLKTEDTAVYYCARLTMVVAEFDYWGQGTLVTVSS VL: DIQMTQSPSSLSASVGDRVTITCQASQDINKYLNWYQHKPGKGPKLLIYYTSTLQTGVPSRFSGSGSGTDFTFTVSNLQPEDIATYYCLQYDNLLTFGQGTKLEIKR | 19.7
Hu02 L2H3 (antibody, human IgG1, kappa, V domains shown) VH: EVQLVESGGGLVQPGGSLRLSCAASGFTFTEYHMSWVRQAPGKGLEWVGFIRNRAQGYTTEYAASVKGRFTISRDDSKNSLYLQMNSLKTEDTAVYYCARLTMVVAEFDYWGQGTLVTVSS VL: AIQMTQSPSSLSASVGERVTITCRASQDINKYLNWYQHKPGKGPKLLIYYTSTLQTGVPSRFSGSGSGTDFTFTVSNLQPEDIATYYCLQYDNLLTFGQGTKLEIKR | 25.2
Hu02 L2H2 (antibody, human IgG1, kappa, V domains shown) VH: EVQLVESGGGLVQPGGSLRLSCAASGFTFTEYHMSWVRQAPGKGLEWVGFIRNRANAYTTEYAASVKGRFTISRDDSKNSLYLQMNSLKTEDTAVYYCARLTMVVAEFDYWGQGTLVTVSS VL: AIQMTQSPSSLSASVGERVTITCRASQDINKYLNWYQHKPGKGPKLLIYYTSTLQTGVPSRFSGSGSGTDFTFTVSNLQPEDIATYYCLQYDNLLTFGQGTKLEIKR | 18.3
Ch02 (antibody, human IgG1, kappa, V domains shown, also called chimeric antibody Ch02; Ch02 antibody) VH: EVKLVESGGGLVQPGGSLRLSCATSGFTFTEYHMSWVRQPPGKALEWLGFIRNRANGYTTEYSASVKGRFTISRDNSQNILYLQMNTLRTEDSATYYCARLTMVVAEFDYWGQGTTLTVSS VL: DIQMTQSPSSLSASLGGEVTITCKASQDINKYIAWYQHKPGKGPRLLIHYTSTLQPGIPSRFSGSGSGRDYSFSVSNLEPEDIATYYCLQYDNLLTFGAGTKLELKR | 19.2

Second part, the binder after the results:

EC50 [nM] | Binder
9.48 | Hu02 L1H5 (antibody, human IgG1, kappa, V domains shown) VH: EVQLVESGGGLVQPGGSLRLSCAASGFTFTEYHMSWVRQAPGKGLEWVGFIRNRANAYTTEYAASVKGRFTISRDNSKNSLYLQMNTLRTEDTAVYYCARLTMVVAEFDYWGQGTLVTVSS VL: DIQMTQSPSSLSASVGDRVTITCQASQDINKYLNWYQHKPGKGPKLLIYYTSTLQTGVPSRFSGSGSGTDFTFTVSNLQPEDIATYYCLQYDNLLTFGQGTKLEIKR
13.2 | Hu02-L1H2 (antibody, human IgG1, kappa, V domains shown) VH: EVQLVESGGGLVQPGGSLRLSCAASGFTFTEYHMSWVRQAPGKGLEWVGFIRNRANAYTTEYAASVKGRFTISRDDSKNSLYLQMNSLKTEDTAVYYCARLTMVVAEFDYWGQGTLVTVSS VL: DIQMTQSPSSLSASVGDRVTITCQASQDINKYLNWYQHKPGKGPKLLIYYTSTLQTGVPSRFSGSGSGTDFTFTVSNLQPEDIATYYCLQYDNLLTFGQGTKLEIKR
8.12 | Hu02 L2H5 (antibody, human IgG1, kappa, V domains shown) VH: EVQLVESGGGLVQPGGSLRLSCAASGFTFTEYHMSWVRQAPGKGLEWVGFIRNRANAYTTEYAASVKGRFTISRDNSKNSLYLQMNTLRTEDTAVYYCARLTMVVAEFDYWGQGTLVTVSS VL: AIQMTQSPSSLSASVGERVTITCRASQDINKYLNWYQHKPGKGPKLLIYYTSTLQTGVPSRFSGSGSGTDFTFTVSNLQPEDIATYYCLQYDNLLTFGQGTKLEIKR
10.2 | Hu02 L1H6 (antibody, human IgG1, kappa, V domains shown) VH: EVQLVESGGGLVQPGGSLRLSCAASGFTFTEYHMSWVRQAPGKGLEWVGFIRNRAQGYTTEYAASVKGRFTISRDNSKNSLYLQMNTLRTEDTAVYYCARLTMVVAEFDYWGQGTLVTVSS VL: DIQMTQSPSSLSASVGDRVTITCQASQDINKYLNWYQHKPGKGPKLLIYYTSTLQTGVPSRFSGSGSGTDFTFTVSNLQPEDIATYYCLQYDNLLTFGQGTKLEIKR
6.54 | Hu02 L2H6 (antibody, human IgG1, kappa, V domains shown) VH: EVQLVESGGGLVQPGGSLRLSCAASGFTFTEYHMSWVRQAPGKGLEWVGFIRNRAQGYTTEYAASVKGRFTISRDNSKNSLYLQMNTLRTEDTAVYYCARLTMVVAEFDYWGQGTLVTVSS VL: AIQMTQSPSSLSASVGERVTITCRASQDINKYLNWYQHKPGKGPKLLIYYTSTLQTGVPSRFSGSGSGTDFTFTVSNLQPEDIATYYCLQYDNLLTFGQGTKLEIKR
6.39 | Hu02 L1H4 (antibody, human IgG1, kappa, V domains shown) VH: EVQLVESGGGLVQPGGSLRLSCAASGFTFTEYHMSWVRQAPGKGLEWVGFIRNRANGYTTEYAASVKGRFTISRDNSKNSLYLQMNTLRTEDTAVYYCARLTMVVAEFDYWGQGTLVTVSS VL: DIQMTQSPSSLSASVGDRVTITCQASQDINKYLNWYQHKPGKGPKLLIYYTSTLQTGVPSRFSGSGSGTDFTFTVSNLQPEDIATYYCLQYDNLLTFGQGTKLEIKR

Target: T1, CD142 (Tissue Factor) on BxPC3 human …
Test: flow cytometry on BxPC3 cells, antibody at 20 ug/mL, FITC goat anti-mouse detection
Experimental: Digested cells were centrifuged at 1000 rpm for 5 min and blocked with 10% goat serum (purchased from SenBeiJia Biological Technology Co., Ltd., Product No. SRJ-SE-GOO12) for 30 min. Then Mu01 and Mu02 antibodies respectively prepared in Example 4 and Example 5 were added at a final concentration of 20 μg/mL and incubated for 1 h. After washing with Phosphate buffer (PBS, PH 7.2-7.4) for 2 times, FITC-labeled goat anti-mouse antibody (purchased from Jackson ImmunoResearch, No. 115-545-003) was added at 1:500 and incubated for 1 hour. Analyzed the resulting product by flow cytometry after washing with PBS for 2 times.

binding result | Binder
binds | Mu01 (antibody, V domains shown, Murine hybridoma antibody purified from ascites; also called monoclonal antibody Mu01; antibody Mu01) VH: QVQLQQSGAELVRPGSSVKISCKASGYTFSSYWMYWVKQRPGQGLEWIGQIYPGDGDSNYNENFKGKATLTADKSSSTAYMQLSSLTSEDSAVYFCTREGYGNRFAYWGQGTLVTVSA VL: QIVLTQSPALMSASPGEKVTMTCSASSSVSYMYWYQQKPRSSPKPWINLTSNLASGVPARFSGRGSGTSYSLTISSMEAEDAATYYCQQWSYNPPTFGGGTKLEIK

Target: T1, CD142 (Tissue Factor) on BxPC3 human …
Test: flow cytometry on BxPC3 cells, 3-fold dilutions from 500 nM, FITC goat anti-human detection
Experimental: Digested cells were centrifuged at 1000 rpm for 5 min and blocked with 10% goat serum (purchased from SenBeiJia Biological Technology Co., Ltd., Product No. SRJ-SE-GO012) for 30 min. Then Hu01 antibodies L5H2, L5H1, L3H1, L3H2 prepared in Example 4 were diluted with a 3-fold gradient at the initial concentration of 500 nM. After that, the Hu01 antibody was added to the cells and incubated for 1 h. After washing twice with PBS, FITC-labeled goat anti-human antibody (purchased from Sigma, product No. FS9512-2ML) was added at 1:500 and incubated for 1 h. The results were analyzed by flow cytometry after washing twice with PBS.

binding result | Binder
binds | Hu01 L5H2 (antibody, human IgG1, kappa, V domains shown) VH: QVQLVQSGAEVKRPGSSVKVSCKASGYTFSSYWMYWVRQAPGQGLEWIGQIYPGDGDSNYNENFQGRVTITADKSTSTAYMELSSLTSEDSAVYFCTREGYGNRFAYWGQGTLVTVSS VL: EIVLTQSPALLSLSPGERATLSCSASSSVSYMYWYQQKPGQAPRLLIQLTSNLASGVPARFSGRGSGTDFTLTISSLEPEDFAVYYCQQWSYNPPTFGGGTKVEIKR
binds | Hu01 L3H2 (antibody, human IgG1, kappa, V domains shown) VH: QVQLVQSGAEVKRPGSSVKVSCKASGYTFSSYWMYWVRQAPGQGLEWIGQIYPGDGDSNYNENFQGRVTITADKSTSTAYMELSSLTSEDSAVYFCTREGYGNRFAYWGQGTLVTVSS VL: EIVLTQSPALMSLSPGERATLSCSASSSVSYMYWYQQKPRSAPRPWIQLTSNLASGVPARFSGRGSGTDFSLTISSLEAEDFATYYCQQWSYNPPTFGGGTKVEIKR
binds | Hu01 L5H1 (antibody, human IgG1, kappa, V domains shown) VH: QVQLVQSGAEVKRPGSSVKVSCKASGYTFSSYWMYWVRQAPGQGLEWIGQIYPGDGDSNYNENFQGRVTITADKSTSTAYMELSSLRSEDTAVYYCTREGYGNRFAYWGQGTLVTVSS VL: EIVLTQSPALLSLSPGERATLSCSASSSVSYMYWYQQKPGQAPRLLIQLTSNLASGVPARFSGRGSGTDFTLTISSLEPEDFAVYYCQQWSYNPPTFGGGTKVEIKR
binds | Hu01-L3H1 (antibody, human IgG1, kappa, V domains shown, also called Hu01 antibody L3H1) VH: QVQLVQSGAEVKRPGSSVKVSCKASGYTFSSYWMYWVRQAPGQGLEWIGQIYPGDGDSNYNENFQGRVTITADKSTSTAYMELSSLRSEDTAVYYCTREGYGNRFAYWGQGTLVTVSS VL: EIVLTQSPALMSLSPGERATLSCSASSSVSYMYWYQQKPRSAPRPWIQLTSNLASGVPARFSGRGSGTDFSLTISSLEAEDFATYYCQQWSYNPPTFGGGTKVEIKR

Reference: patent US20260199507A1 (MULTITUDE THERAPEUTICS, published 2026)
